Experimental data from patent US5849890, “High affinity oligonucleotide ligands to chorionic gonadotropin hormone and related glycoprotein hormones” (NeXstar Pharmaceuticals, Inc.).
Substitutions are numbered along the chain they refer to.

B1: Class 1 ligand 8 (ssRNA)
RNA: GGGAGACAAGAAUAAACGCUCAAGUGCCCUGUUAUCUUCCUCGAUCGAUUGAACGAUCCUUUCGACAGGAGGCUCACAACAGGC
modifications: 2'-F all pyrimidines
B2: 2nd generation ligand 89 (ssRNA)
RNA: GGGAGGACGAUGCGGUGCAUGAUUUAGUUGAACGAUCCUUCCAACUUCCAGCACAGACGACUCGCCCGA
modifications: 2'-F all pyrimidines
B3: 2nd generation ligand 93 (ssRNA)
RNA: GGGAGGACGAUGCGGUUCUAGGUCGAAAUUGAACGAUCCUUUUUCGCUAUGGAUCAGACGACUCGCCCGA
modifications: 2'-F all pyrimidines
B4: 2nd generation ligand 10 (ssRNA)
RNA: GGGAGGACGAUGCGGAACACCAAUCUUUUUGAACGAUCCUUCGUGGGAGUGCAUCAGACGACUCGCCCGA
modifications: 2'-F all pyrimidines
B5: 2nd generation ligand 23 (ssRNA)
RNA: GGGAGGACGAUGCGGGUUUAAUACAAAGUUGAACGAUCCUUCUUUGCAUUGGACCAGACGACUCGCCCGA
modifications: 2'-F all pyrimidines
B6: 2nd generation ligand 88 (ssRNA)
RNA: GGGAGGACGAUGCGGUUCGUUACGAUAAUUGAACGAUCCUUUUAUCUUUCAGUCCAGACGACUCGCCCGA
modifications: 2'-F all pyrimidines
B7: 2nd generation ligand 19 (ssRNA)
RNA: GGGAGGACGAUGCGGUUUGACGUAUAAUUGAACGAUCCUUUUCUAGCUUAGACCAGACGACUCGCCCGA
modifications: 2'-F all pyrimidines
B8: Class 1 ligand 11 (ssRNA)
RNA: GGGAGACAAGAAUAAACGCUCAAUUUAGAAGAUCCCGGAGUCUCGUUGGUCGUUGAACGAUCCUUCGACAGGAGGCUCACAACAGGC
modifications: 2'-F all pyrimidines
B9: Class 1 ligand 18 (first SELEX) (ssRNA)
RNA: B8 RNA with A27C, G37U
modifications: 2'-F all pyrimidines
B10: Class 1 ligand 5 (ssRNA)
RNA: B8 RNA with U24A, A27G, A30G, G31U, G37U, C44U, A60G
modifications: 2'-F all pyrimidines
B11: Class 1 ligand 49 (ssRNA)
RNA: B8 RNA with A27G, G38A, A39G, G40A
modifications: 2'-F all pyrimidines
B12: Class 1 ligand 16 (ssRNA)
RNA: B8 RNA with U26C, A27G, G37A
modifications: 2'-F all pyrimidines
B13: Class 1 ligand 26 (ssRNA)
RNA: B8 RNA with A27G, G37U
modifications: 2'-F all pyrimidines
B14: Class 1 ligand 40 (ssRNA)
RNA: B8 RNA with U26C, A27U, G37A
modifications: 2'-F all pyrimidines
B15: Class 1 ligand 10 (ssRNA)
RNA: B8 RNA with U26C, A27G, C35A
modifications: 2'-F all pyrimidines
B16: 2nd generation ligand 11 (ssRNA)
RNA: GGGAGGACGAUGCGGGAUUCUCUUUGAGUUGAACGAUCCUUCUCAUCGCACUUGCCAGACGACUCGCCCGA
modifications: 2'-F all pyrimidines
B17: 2nd generation ligand 58 (ssRNA)
RNA: GGGAGGACGAUGCGGUCUUAAGUUUGAAUUGAACGAUCCUUUUCUUCCAGGCAACAGACGACUCGCCCGA
modifications: 2'-F all pyrimidines
B18: 2nd generation ligand 61 (ssRNA)
RNA: GGGAGGACGAUGCGGUUUAGUGUUUAGUUGAACGAUCCUUCUAACACCAGUCCCAGACGACUCGCCCGA
modifications: 2'-F all pyrimidines
B19: 2nd generation ligand 72 (ssRNA)
RNA: GGGAGGACGAUGCGGAUUCGAUGUAGUUUGAACGAUCCUUGUAUAUAUCGGAUCAGACGACUCGCCCGA
modifications: 2'-F all pyrimidines
B20: 2nd generation ligand 91 (ssRNA)
RNA: GGGAGGACGAUGCGGUUCAUUUUUGUGUUGAACGAUCCUUCACUAACCUACCACAGACGACUCGCCCGA
modifications: 2'-F all pyrimidines
B21: Class 1 ligand 43 (ssRNA)
RNA: GGGAGACAAGAAUAAACGCUCAACCAGAUAAUCCCAAUGAGUCCCUCGAGAUUGAACGAUCCUUUCGACAGGAGGCUCACAACAGGC
modifications: 2'-F all pyrimidines
B22: Class 1 ligand 28 (ssRNA)
RNA: GGGAGACAAGAAUAAACGCUCAAACAGCGAUUGAACGAUCCUUUCAGCUGAUGGGUACGGGAUUCGACAGGAGGCUCACAACAGGC
modifications: 2'-F all pyrimidines
B23: 2nd generation ligand 20 (ssRNA)
RNA: GGGAGGACGAUGCGGUGUUCAUGCUUGAUUGAACGAUCCUUUCAUAGUGUUGGUCAGACGACUCGCCCGA
modifications: 2'-F all pyrimidines
B24: 2nd generation ligand 5 (ssRNA)
RNA: GGGAGGACGAUGCGGGUUUAAUCUCGGAUUGAACGAUCCUUUCUGUAAUUAGUCCAGACGACUCGCCCGA
modifications: 2'-F all pyrimidines
B25: 2nd generation ligand 71 (ssRNA)
RNA: GGGAGGACGAUGCGGAUUCGAUUAGAGAUUGAACGAUCCUUUCAUCAGUUGGAUCAGACGACUCGCCCGA
modifications: 2'-F all pyrimidines
B26: 2nd generation ligand 14 (ssRNA)
RNA: GGGAGGACGAUGCGGUUCGACACGAAAGUUGAACGAUCCUUCUAUCUGUUGGACCAGACGACUCGCCCGA
modifications: 2'-F all pyrimidines
B27: 2nd generation ligand 69 (ssRNA)
RNA: GGGAGGACGAUGCGGGUUUCACUUCAAGUUGAACGAUCCUUCUUGGCUUGAGCACAGACGACUCGCCCGA
modifications: 2'-F all pyrimidines
B28: 2nd generation ligand 33 (ssRNA)
RNA: GGGAGGACGAUGCGGUUCGAUGGCCAUUUGAACGAUCCUUAUUAUCAACGGUCCAGACGACUCGCCCGA
modifications: 2'-F all pyrimidines
B29: 2nd generation ligand 52 (ssRNA)
RNA: GGGAGGACGAUGCGGGAUUUUCCGUUAAUUGAACGAUCCUUUUCACGGACUGCAGACGACUCGCCCGA
modifications: 2'-F all pyrimidines
B30: 2nd generation ligand 83 (ssRNA)
RNA: GGGAGGACGAUGCGGUUUGAUGAGGUAGUUGAACGAUCCUUCCAUCCGUUAGACCAGACGACUCGCCCGA
modifications: 2'-F all pyrimidines
B31: 2nd generation ligand 49 (ssRNA)
RNA: GGGAGGACGAUGCGGUUCGUCAUCGCUAUUGAACGAUCCUUUAGCUGAUGGACCAGACGACUCGCCCGA
modifications: 2'-F all pyrimidines
B32: 2nd generation ligand 73 (ssRNA)
RNA: GGGAGGACGAUGCGGGGUUUUCUAAGUGUUGAACGAUCCUUCACAUAGCGUGUCCCAGACGACUCGCCCGA
modifications: 2'-F all pyrimidines
B33: Class 1 ligand 37 (ssRNA)
RNA: GGGAGACAAGAAUAAACGCUCAAUUUGGAAGGUCCUGAGUCUCGUUGGUCGUUGAACGAUCCUUCGACAGGAGGCUCACAACAGGC
modifications: 2'-F all pyrimidines
B34: Class 1 ligand 4 (ssRNA)
RNA: GGGAGACAAGAAUAAACGCUCAAUUUGGAAGAUCCCGGAGUCUCGUUGGUGUUGAACGAUUCUUCGACAGGAGGCUCACAACAGGC
modifications: 2'-F all pyrimidines
B35: Class 1 ligand 30 (ssRNA)
RNA: GGGAGACAAGAAUAAACGCUCAAAAGUCACUCGCAGCGCUUCCUGGUUCGAUUGAACGAUCCUUUCGACAGGAGGCUCACAACAGGC
modifications: 2'-F all pyrimidines
B36: 2nd generation ligand 25 (ssRNA)
RNA: GGGAGGACGAUGCGGUUCCUGAUUCAAGUUGAACGAUCCUUCCUGCUGUACGUCCAGACGACUCGCCCGA
modifications: 2'-F all pyrimidines
B37: 2nd generation ligand 98 (ssRNA)
RNA: GGGAGGACGAUGCGGGUUCCAGUAUUAGUUGAACGAUCCUUCUUAUCUGGAGUCCAGACGACUCGCCCGA
modifications: 2'-F all pyrimidines
B38: 2nd generation ligand 86 (ssRNA)
RNA: GGGAGGACGAUGCGGUUCAACAACGUACUUGAACGAUCCUUGUGCUCGUUGAUCCAGACGACUCGCCCGA
modifications: 2'-F all pyrimidines
B39: 2nd generation ligand 42 (ssRNA)
RNA: GGGAGGACGAUGCGGGUUCGAAACUUCCUUGAACGAUCCUUGGAUGUUUUGCUCAGACGACUCGCCCGA
modifications: 2'-F all pyrimidines
B40: Class 1 ligand 20 (ssRNA)
RNA: GGGAGACAAGAAUAAACGCUCAAGUCAUAAGCCUAACGGUCCCUAGUCAAUUGAACGAUCCUUCGACAGGAGGCUCACAACAGGC
modifications: 2'-F all pyrimidines
B41: 2nd generation ligand 9 (ssRNA)
RNA: GGGAGGACGAUGCGGUUCUACACGAUAUUUGAACGAUCCUUGUAUCUUAGGUCCCAGACGACUCGCCCGA
modifications: 2'-F all pyrimidines
B42: 2nd generation ligand (SEQ 118) (ssRNA)
RNA: GGGAGGACGAUGCGGGUUCGACAUAAUCUUGAACGAUCCUUGAUUACUUGGUCCCAGACGACUCGCCCGA
modifications: 2'-F all pyrimidines
B43: Class 1 ligand 56 (ssRNA)
RNA: GGGAGACAAGAAUAAACGCUCAAUUUGGAAGAUCCCUGGAGUCUCGUUGGUCGUUGAACGAUCCUUCGACAGGAGGCUCACAACAGGC
modifications: 2'-F all pyrimidines
B44: 2nd generation ligand 74 (ssRNA)
RNA: GGGAGGACGAUGCGGUAAGUUCUAACUUUUGAACGAUCCUUGGCACCCUGACUACAGACGACUCGCCCGA
modifications: 2'-F all pyrimidines

Tests used:
[1] = biological target: T1, human chorionic gonadotropin (hCG) heterodimer (Homo sapiens, UniProt P01215;P0DN86 P01215:25-116,P0DN86:21-165); experiment: filter; conditions: tags: Calbiochem or Vitro Diagnostics (14,000 IU/mg); chain copies: alpha/beta heterodimer (stated); label: 32P
T1 sequence (P01215 25-116, chain 1 of 2, other chains not shown): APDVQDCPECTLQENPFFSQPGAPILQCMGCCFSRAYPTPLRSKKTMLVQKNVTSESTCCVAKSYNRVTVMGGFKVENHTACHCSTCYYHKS

[2] = biological target: T1, human chorionic gonadotropin (hCG) …; experiment: filter; conditions: tags: Calbiochem or Vitro Diagnostics (14,000 IU/mg); chain copies: alpha/beta heterodimer (stated); label: 32P; remark: listed apart in the source

| Binder | binding signal [1] | binding signal [2] |
| --- | --- | --- |
| B1 | 0.98 % bound at 100 nM | – |
| B2 | – | 0.21 % bound at 100 nM |
| B3 | – | 7.25 % bound at 100 nM |
| B4 | – | 0 % bound at 100 nM |
| B5 | – | 13 % bound at 100 nM |
| B6 | – | 0.32 % bound at 100 nM |
| B7 | – | 8.52 % bound at 100 nM |
| B8 | 3.09 % bound at 100 nM | – |
| B9 | 2.69 % bound at 100 nM | – |
| B10 | 1.26 % bound at 100 nM | – |
| B11 | 3.77 % bound at 100 nM | – |
| B12 | 5.41 % bound at 100 nM | – |
| B13 | 3.34 % bound at 100 nM | – |
| B14 | 2.2 % bound at 100 nM | – |
| B15 | 3.59 % bound at 100 nM | – |
| B16 | – | 10 % bound at 100 nM |
| B17 | – | 0 % bound at 100 nM |
| B18 | – | 15.5 % bound at 100 nM |
| B19 | – | 0.3 % bound at 100 nM |
| B20 | – | 2.36 % bound at 100 nM |
| B21 | 0.93 % bound at 100 nM | – |
| B22 | 0.58 % bound at 100 nM | – |

| Binder | binding signal [1] | binding signal [2] |
| --- | --- | --- |
| B23 | – | 8.37 % bound at 100 nM |
| B24 | – | 3.14 % bound at 100 nM |
| B25 | – | 6.99 % bound at 100 nM |
| B26 | – | 15.4 % bound at 100 nM |
| B27 | – | 18.8 % bound at 100 nM |
| B28 | – | 0.59 % bound at 100 nM |
| B29 | – | 6.01 % bound at 100 nM |
| B30 | – | 4.48 % bound at 100 nM |
| B31 | – | 14.4 % bound at 100 nM |
| B32 | – | 0.84 % bound at 100 nM |
| B33 | 1.89 % bound at 100 nM | – |
| B34 | 4.81 % bound at 100 nM | – |
| B35 | 0.58 % bound at 100 nM | – |
| B36 | – | 0.28 % bound at 100 nM |
| B37 | – | 11.7 % bound at 100 nM |
| B38 | – | 0.57 % bound at 100 nM |
| B39 | – | 0.54 % bound at 100 nM |
| B40 | 0.13 % bound at 100 nM | – |
| B41 | – | 9.98 % bound at 100 nM |
| B42 | – | 13 % bound at 100 nM |
| B43 | 3.85 % bound at 100 nM | – |
| B44 | – | 11.5 % bound at 100 nM |
